Measurements reported in patent US20060286609A1 (BIOCHECK, published 2006).

Key:
[1] = target: Human Id1: Histidine (human) (UniProt P41134); assay: sandwich ELISA, 5-3-coated wells, human Id1:His 5.0 ng/ml, detected with rabbit polyclonal B-5133-HRP
[2] = target: Human Id1: Histidine (human) (UniProt P41134); assay: ELISA, coated antigen, Ab 0.50 ug/ml
[3] = target: T1, glutathione S-transferase (GST) (UniProt P08515 1-218 = GST); assay: ELISA, coated antigen, Ab 10.0 ug/ml
T1 construct: Coated on wells as control for the fusion partner of the immunogen
Procedure: (§1) Incubate plates at 2-8° C. overnight (16-24 hours). [0145] 11. Shake off the BSA solution. [0146] 12. Dispense 250 μL of 2.5% sucrose solution into each well. [0147] 13. Incubate plates at 2-8° C. for 4 hours. [0148] 14. Shake off sucrose solution. [0149] 15. Dry in vacuum at room temperature overnight. Screening Method [0150] 1. Dispense 100 μL of antibody diluent, diluted rabbit polyclonal anti-Id1 into appropriate wells. […] 2. Incubate at room temperature with mechanical shaking at 750 rpm for 90 minutes. [0152] 3. Remove the incubation mixture by flicking plate content into an appropriate waste container, followed by rinsing the wells 5 times with distilled water. […] 4. Strike the wells sharply onto absorbent paper or paper towels to remove all residual water droplets. [0154] 5. Dispense 100 μL of Goat Anti-Rabbit IgG-HRP Conjugate Reagent into each well. Gently mix for 5 seconds. [0155] 6. Incubate at room temperature with mechanical shaking at 750 rpm for 90 minutes. […] 7. Repeat procedures 3 and 4. [0157] 8. Dispense 100 μL of TMB Reagent into each well. Gently mix for 5 seconds. [0158] 9. Incubate at room temperature with mechanical shaking at 750 rpm for 20 minutes. [0159] 10. Add 100 μL of Stop Solution (1N HCl) into each well. [0160] 11. Gently mix for 10 seconds to ensure a complete mixing. […] 12. Read optical density (absorbance) at 450 nm. Results from this assay were used to select the rabbit sera with the highest antibodies titer that selectively reacts with mouse Id1 or human Id1 or both.
(§2) A comparison was carried out between the reactivity of the rabbit monoclonal anti-mouse Id1, clone #BCH-1/#37-2, of this invention and the mouse monoclonal anti-mouse/human Id1 from BD Pharmingen with the following antigens prepared in Example 5: mouse Id1:His, human Id1:His, human Id2:His, human Id3:His, and GST. These antigens and protein were used to coat the wells.
(§3) Materials and methods were those described in Example 9 except (a) Pharmingen's mouse monoclonal anti-mouse Id1 was used in addition to the rabbit monoclonal anti-mouse Id1 (Example 10), and (b) goat anti-mouse IgG-HRP conjugate was used to process the wells treated with the Pharmingen monoclonal antibody and polyclonal goat anti-rabbit IgG-HRP conjugate was used to process wells treated with rabbit monoclonal anti-mouse Id1.

Mouse Id1: Histidine = target: T2, Mouse Id1: Histidine (mouse, UniProt P20067-2 1-148); assay: ELISA, coated antigen, Ab 10.0 ug/ml
T2 construct: E. coli fusion protein (vector pGW07); also called m-Id1-His; not shown: His-tag
T2 sequence: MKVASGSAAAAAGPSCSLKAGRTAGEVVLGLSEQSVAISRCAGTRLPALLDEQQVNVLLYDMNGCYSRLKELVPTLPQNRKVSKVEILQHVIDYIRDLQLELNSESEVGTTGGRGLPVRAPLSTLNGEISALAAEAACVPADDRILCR
Procedure: as §1, §2, §3

Human Id2: Histidine = target: T3, Human Id2: Histidine (human, UniProt Q02363 1-134, limits assumed); assay: ELISA, coated antigen, Ab 10.0 ug/ml
T3 construct: E. coli fusion protein (vector pGW07); also called h-Id2: His; not shown: His-tag
T3 sequence (looked up): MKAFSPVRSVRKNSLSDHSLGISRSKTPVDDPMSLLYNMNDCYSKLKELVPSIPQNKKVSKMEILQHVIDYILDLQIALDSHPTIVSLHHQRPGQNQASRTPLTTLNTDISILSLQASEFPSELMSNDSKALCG
Procedure: as §1, §2, §3

Human Id3: Histidine = target: T4, Human Id3: Histidine (human, UniProt Q02535 1-119, limits assumed); assay: ELISA, coated antigen, Ab 10.0 ug/ml
T4 construct: E. coli fusion protein (vector pGW07); also called h-Id3: His; not shown: His-tag
T4 sequence (looked up): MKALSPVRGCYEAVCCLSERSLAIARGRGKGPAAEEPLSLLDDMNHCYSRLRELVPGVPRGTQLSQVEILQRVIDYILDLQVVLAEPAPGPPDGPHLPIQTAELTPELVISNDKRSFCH
Procedure: as §1, §2, §3

mouse Id1 protein = target: T5, mouse Id1 protein (mouse, UniProt P20067-2 1-148); assay: SPR (BIACORE 2000), antibody immobilized on CM5 chip, Id-1 as analyte, 1:1 Langmuir model
T5 construct: No tag stated; Western blots: expressed in transfected HeLa cells (whole cell extract on SDS gel); IHC: endogenous in mouse mammary tumor tissue
T5 sequence: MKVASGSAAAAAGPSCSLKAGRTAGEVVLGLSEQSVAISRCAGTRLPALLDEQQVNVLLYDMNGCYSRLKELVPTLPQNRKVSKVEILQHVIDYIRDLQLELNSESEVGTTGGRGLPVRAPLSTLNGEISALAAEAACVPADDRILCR
Procedure: (§4) Antibodies were immobilized on CM5 sensor chips. All SPR (surface plasmon resonance) assays were carried out in a BIACORE 2000 instrument. A mouse monoclonal antibody was used as reference labeled at the 2nd channel (Fc2) of the chip. BCH-1#37-2 was immobilized on the 4th (Fc4) channel. Final conjugation of antibodies on chip surface was 1878 RU for BCH-1#37-2. Mouse Id-1 and human Id-1 were applied as mobile analytes. The binding assays were carried out in HBS-P buffer (10 mM HEPES, pH 7.4, containing 150 mM sodium chloride, 0.005% surfactant P-20 detergent and 0.12% glycerol). Kinetics were determined with 8 different analyte concentrations ranging from […] to 573 nM. For analyses, 125 μl of analyte were injected (Kinject protocol) at 30 μl/min and the dissociation lasted for 240 seconds at the same flow rate. The surface was regenerated by washing with 50 μl solution of 100 mM glycine and 100 mM of HCl, pH 1.81, at 60 μl/min and the extra cleaning protocol was followed. The kinetic analyses of sensograms were based on the Langmuir (1:1) binding model. Both association rate constant and dissociation rate constants for the interaction of mouse Id-1 and human Id-1 with the immobilized antibodies were determined from the analysis of sensograms using the Biaevaluation software, version 3.0. […]

human Id1 protein = target: T6, human Id1 protein (human, UniProt P41134 1-155); assay: as above
T6 construct: No tag stated; Western blots: endogenous in HeLa and other human cancer cell extracts; IHC: endogenous in human mammary tumor tissue
T6 sequence: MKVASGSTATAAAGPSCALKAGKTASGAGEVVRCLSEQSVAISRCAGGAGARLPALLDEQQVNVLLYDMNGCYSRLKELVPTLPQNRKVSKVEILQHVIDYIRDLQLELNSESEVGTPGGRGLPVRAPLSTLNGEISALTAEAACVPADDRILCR
Procedure: as §4

T1 sequence (P08515 whole entry, the tested form may be a part): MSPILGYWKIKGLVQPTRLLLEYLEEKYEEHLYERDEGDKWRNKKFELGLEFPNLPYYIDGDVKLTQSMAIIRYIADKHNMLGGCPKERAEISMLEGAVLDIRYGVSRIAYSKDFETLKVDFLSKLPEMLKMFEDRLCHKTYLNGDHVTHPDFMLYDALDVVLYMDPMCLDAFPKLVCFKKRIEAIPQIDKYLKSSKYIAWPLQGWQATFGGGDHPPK

Molecule | A450 [1] [A450] | A450 [2] [A450] | A450 [3] [A450] | A450 (Mouse Id1: Histidine) [A450] | A450 (Human Id2: Histidine) [A450] | A450 (Human Id3: Histidine) [A450] | Ka (mouse Id1 protein) [M⁻¹] | Ka (human Id1 protein) [M⁻¹]
rabbit monoclonal anti-human Id1, clone #BCH-2/#5-3 (antibody) | 0.365 |  |  |  |  |  |  | 
rabbit monoclonal anti-mouse Id1, clone #BCH-1/#37-2 (antibody, V domains shown, Rabbit IgG from hybridoma, Protein G purified; also called m Id1 MoAb 37-2; Rabbit Monoclonal Anti-Mouse Id1 (#37-2)) VH: QSVEESGGRLVTPGTPLTLTCKVSGFDINSYAMDWFRQAPGKGLEWIGMMSTRGNTYYTSWAKGRFTISKTSSTTVDLKMTSLTTEDTATYFCARGGLWGPGTLVTVSS VL: RVLTQTASPVSAAVGGTVTINCQASQSVYNGNRLGWYQLKPGQSPKELIHDASTLASGVPSRFRGSGSGTQFTLTINDVQCDDAATYYCVGSYACSTGDCNVFGGGTEVVVK |  | 0.091 | 0.108 | 3.27 | 0.115 | 0.113 | 2.9e+11 | 2.9e+09
